# Numbered stars: 1 amine (or outer) side, 2 acyl side, 3 side chain; on linkers, the order of the positions; unused ones are H or OH. Bridge positions count the residues as written; N and C are the ends. Square brackets hold non-standard residues; d marks the D form. Side chains are listed from the residue outwards. Ends that are not written are not given here. * marks the point of attachment. C20 diacid = O=C(O)CCCCCCCCCCCCCCCCCCC(=O)*; C18 diacid = O=C(O)CCCCCCCCCCCCCCCCC(=O)*; γGlu = O=C(O)[C@H](CCC(=O)[*:2])N[*:1]; αMeF = C[C@](N)(Cc1ccccc1)C(=O)O; Aib = CC(C)(N)C(=O)O
# T1: human calcitonin receptor (human, UniProt P30988 25-474)
# T1 sequence (looked up): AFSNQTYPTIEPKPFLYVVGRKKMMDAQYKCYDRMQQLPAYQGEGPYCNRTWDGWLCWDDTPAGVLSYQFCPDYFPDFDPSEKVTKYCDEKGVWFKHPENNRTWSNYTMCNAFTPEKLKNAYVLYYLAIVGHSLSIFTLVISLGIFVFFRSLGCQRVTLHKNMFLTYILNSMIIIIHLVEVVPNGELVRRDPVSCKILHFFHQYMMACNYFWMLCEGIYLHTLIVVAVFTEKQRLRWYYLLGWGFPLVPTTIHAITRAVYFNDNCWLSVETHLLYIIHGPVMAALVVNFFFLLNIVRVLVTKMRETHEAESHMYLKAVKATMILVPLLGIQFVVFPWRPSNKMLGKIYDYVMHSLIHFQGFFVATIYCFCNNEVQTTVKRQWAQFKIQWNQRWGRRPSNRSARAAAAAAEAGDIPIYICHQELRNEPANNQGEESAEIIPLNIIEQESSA
# T2: human amylin receptor (calcitonin receptor co-expressed with receptor activity modifying protein, RAMP3) (human, UniProt P30988 25-474; O60896 24-148)
# T2 sequence (looked up) 1: T1 sequence (looked up)
# T2 sequence (looked up) 2: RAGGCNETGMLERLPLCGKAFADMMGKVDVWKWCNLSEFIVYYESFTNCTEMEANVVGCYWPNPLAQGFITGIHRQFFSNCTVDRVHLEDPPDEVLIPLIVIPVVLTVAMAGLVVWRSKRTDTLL
# B1: Peptide 111 (SEQ ID NO: 111) (peptide)
# peptide: K([γGlu-C18 diacid])KCNTATCATQRLANFLVHSSNHFGPILPPTNVGSETY-NH2
# modifications: disulfide 3-8; N-terminus assumed
# SMILES: CC[C@H](C)[C@H](NC(=O)[C@@H]1CCCN1C(=O)CNC(=O)[C@H](Cc1ccccc1)NC(=O)[C@H](Cc1c[nH]cn1)NC(=O)[C@H](CC(N)=O)NC(=O)[C@H](CO)NC(=O)[C@H](CO)NC(=O)[C@H](Cc1c[nH]cn1)NC(=O)[C@@H](NC(=O)[C@H](CC(C)C)NC(=O)[C@H](Cc1ccccc1)NC(=O)[C@H](CC(N)=O)NC(=O)[C@H](C)NC(=O)[C@H](CC(C)C)NC(=O)[C@H](CCCNC(=N)N)NC(=O)[C@H](CCC(N)=O)NC(=O)[C@@H](NC(=O)[C@H](C)NC(=O)[C@@H]1CSSC[C@H](NC(=O)[C@H](CCCCN)NC(=O)[C@@H](N)CCCCNC(=O)CC[C@H](NC(=O)CCCCCCCCCCCCCCCCC(=O)O)C(=O)O)C(=O)N[C@@H](CC(N)=O)C(=O)N[C@@H]([C@@H](C)O)C(=O)N[C@@H](C)C(=O)N[C@@H]([C@@H](C)O)C(=O)N1)[C@@H](C)O)C(C)C)C(=O)N[C@@H](CC(C)C)C(=O)N1CCC[C@H]1C(=O)N1CCC[C@H]1C(=O)N[C@H](C(=O)N[C@@H](CC(N)=O)C(=O)N[C@H](C(=O)NCC(=O)N[C@@H](CO)C(=O)N[C@@H](CCC(=O)O)C(=O)N[C@H](C(=O)N[C@@H](Cc1ccc(O)cc1)C(N)=O)[C@@H](C)O)C(C)C)[C@@H](C)O
# B2: Peptide 117 (SEQ ID NO: 117) (peptide)
# peptide: K([γGlu-γGlu-C20 diacid])CNTATCATQRLANFLVHSS[Aib]NFPAILSPTNVGSNTY-NH2
# modifications: disulfide 2-7; N-terminus assumed
# SMILES: CC[C@H](C)[C@H](NC(=O)[C@H](C)NC(=O)[C@@H]1CCCN1C(=O)[C@H](Cc1ccccc1)NC(=O)[C@H](CC(N)=O)NC(=O)C(C)(C)NC(=O)[C@H](CO)NC(=O)[C@H](CO)NC(=O)[C@H](Cc1c[nH]cn1)NC(=O)[C@@H](NC(=O)[C@H](CC(C)C)NC(=O)[C@H](Cc1ccccc1)NC(=O)[C@H](CC(N)=O)NC(=O)[C@H](C)NC(=O)[C@H](CC(C)C)NC(=O)[C@H](CCCNC(=N)N)NC(=O)[C@H](CCC(N)=O)NC(=O)[C@@H](NC(=O)[C@H](C)NC(=O)[C@@H]1CSSC[C@H](NC(=O)[C@@H](N)CCCCNC(=O)CC[C@H](NC(=O)CC[C@H](NC(=O)CCCCCCCCCCCCCCCCCCC(=O)O)C(=O)O)C(=O)O)C(=O)N[C@@H](CC(N)=O)C(=O)N[C@@H]([C@@H](C)O)C(=O)N[C@@H](C)C(=O)N[C@@H]([C@@H](C)O)C(=O)N1)[C@@H](C)O)C(C)C)C(=O)N[C@@H](CC(C)C)C(=O)N[C@@H](CO)C(=O)N1CCC[C@H]1C(=O)N[C@H](C(=O)N[C@@H](CC(N)=O)C(=O)N[C@H](C(=O)NCC(=O)N[C@@H](CO)C(=O)N[C@@H](CC(N)=O)C(=O)N[C@H](C(=O)N[C@@H](Cc1ccc(O)cc1)C(N)=O)[C@@H](C)O)C(C)C)[C@@H](C)O
# B3: Peptide 119 (SEQ ID NO: 119) (peptide)
# peptide: K([γGlu-γGlu-C20 diacid])CNTATCATQRLANFLVHSPPNFPAILSPTNVGSNTY-NH2
# modifications: disulfide 2-7; N-terminus assumed
# SMILES: CC[C@H](C)[C@H](NC(=O)[C@H](C)NC(=O)[C@@H]1CCCN1C(=O)[C@H](Cc1ccccc1)NC(=O)[C@H](CC(N)=O)NC(=O)[C@@H]1CCCN1C(=O)[C@@H]1CCCN1C(=O)[C@H](CO)NC(=O)[C@H](Cc1c[nH]cn1)NC(=O)[C@@H](NC(=O)[C@H](CC(C)C)NC(=O)[C@H](Cc1ccccc1)NC(=O)[C@H](CC(N)=O)NC(=O)[C@H](C)NC(=O)[C@H](CC(C)C)NC(=O)[C@H](CCCNC(=N)N)NC(=O)[C@H](CCC(N)=O)NC(=O)[C@@H](NC(=O)[C@H](C)NC(=O)[C@@H]1CSSC[C@H](NC(=O)[C@@H](N)CCCCNC(=O)CC[C@H](NC(=O)CC[C@H](NC(=O)CCCCCCCCCCCCCCCCCCC(=O)O)C(=O)O)C(=O)O)C(=O)N[C@@H](CC(N)=O)C(=O)N[C@@H]([C@@H](C)O)C(=O)N[C@@H](C)C(=O)N[C@@H]([C@@H](C)O)C(=O)N1)[C@@H](C)O)C(C)C)C(=O)N[C@@H](CC(C)C)C(=O)N[C@@H](CO)C(=O)N1CCC[C@H]1C(=O)N[C@H](C(=O)N[C@@H](CC(N)=O)C(=O)N[C@H](C(=O)NCC(=O)N[C@@H](CO)C(=O)N[C@@H](CC(N)=O)C(=O)N[C@H](C(=O)N[C@@H](Cc1ccc(O)cc1)C(N)=O)[C@@H](C)O)C(C)C)[C@@H](C)O
# B4: Peptide 118 (SEQ ID NO: 118) (peptide)
# peptide: K([γGlu-γGlu-C20 diacid])CNIATCATQRLANFLVHSIANFGPILPPTNVGSRTY-NH2
# modifications: disulfide 2-7; N-terminus assumed
# SMILES: CC[C@H](C)[C@H](NC(=O)[C@H](CO)NC(=O)[C@H](Cc1c[nH]cn1)NC(=O)[C@@H](NC(=O)[C@H](CC(C)C)NC(=O)[C@H](Cc1ccccc1)NC(=O)[C@H](CC(N)=O)NC(=O)[C@H](C)NC(=O)[C@H](CC(C)C)NC(=O)[C@H](CCCNC(=N)N)NC(=O)[C@H](CCC(N)=O)NC(=O)[C@@H](NC(=O)[C@H](C)NC(=O)[C@@H]1CSSC[C@H](NC(=O)[C@@H](N)CCCCNC(=O)CC[C@H](NC(=O)CC[C@H](NC(=O)CCCCCCCCCCCCCCCCCCC(=O)O)C(=O)O)C(=O)O)C(=O)N[C@@H](CC(N)=O)C(=O)N[C@@H]([C@@H](C)CC)C(=O)N[C@@H](C)C(=O)N[C@@H]([C@@H](C)O)C(=O)N1)[C@@H](C)O)C(C)C)C(=O)N[C@@H](C)C(=O)N[C@@H](CC(N)=O)C(=O)N[C@@H](Cc1ccccc1)C(=O)NCC(=O)N1CCC[C@H]1C(=O)N[C@H](C(=O)N[C@@H](CC(C)C)C(=O)N1CCC[C@H]1C(=O)N1CCC[C@H]1C(=O)N[C@H](C(=O)N[C@@H](CC(N)=O)C(=O)N[C@H](C(=O)NCC(=O)N[C@@H](CO)C(=O)N[C@@H](CCCNC(=N)N)C(=O)N[C@H](C(=O)N[C@@H](Cc1ccc(O)cc1)C(N)=O)[C@@H](C)O)C(C)C)[C@@H](C)O)[C@@H](C)CC
# B5: Peptide 110 (SEQ ID NO: 110) (peptide)
# peptide: K([γGlu-C18 diacid])KCNTATCATQRLANFLVHSSNNF[Aib]PILPPTNVGSNTY-NH2
# modifications: disulfide 3-8; N-terminus assumed
# SMILES: CC[C@H](C)[C@H](NC(=O)[C@@H]1CCCN1C(=O)C(C)(C)NC(=O)[C@H](Cc1ccccc1)NC(=O)[C@H](CC(N)=O)NC(=O)[C@H](CC(N)=O)NC(=O)[C@H](CO)NC(=O)[C@H](CO)NC(=O)[C@H](Cc1c[nH]cn1)NC(=O)[C@@H](NC(=O)[C@H](CC(C)C)NC(=O)[C@H](Cc1ccccc1)NC(=O)[C@H](CC(N)=O)NC(=O)[C@H](C)NC(=O)[C@H](CC(C)C)NC(=O)[C@H](CCCNC(=N)N)NC(=O)[C@H](CCC(N)=O)NC(=O)[C@@H](NC(=O)[C@H](C)NC(=O)[C@@H]1CSSC[C@H](NC(=O)[C@H](CCCCN)NC(=O)[C@@H](N)CCCCNC(=O)CC[C@H](NC(=O)CCCCCCCCCCCCCCCCC(=O)O)C(=O)O)C(=O)N[C@@H](CC(N)=O)C(=O)N[C@@H]([C@@H](C)O)C(=O)N[C@@H](C)C(=O)N[C@@H]([C@@H](C)O)C(=O)N1)[C@@H](C)O)C(C)C)C(=O)N[C@@H](CC(C)C)C(=O)N1CCC[C@H]1C(=O)N1CCC[C@H]1C(=O)N[C@H](C(=O)N[C@@H](CC(N)=O)C(=O)N[C@H](C(=O)NCC(=O)N[C@@H](CO)C(=O)N[C@@H](CC(N)=O)C(=O)N[C@H](C(=O)N[C@@H](Cc1ccc(O)cc1)C(N)=O)[C@@H](C)O)C(C)C)[C@@H](C)O
# Target: T1, human calcitonin receptor
# Experiment: cell-based or functional assay
row,Binder,EC50 (cAMP production) [nM]
1,B1,1.88
2,K([γGlu-γGlu-C18 diacid])CNTATCATQRLANFLVHSSNN[αMeF]GPILPPTNVGSNTY-NH2 (disulfide 2-7) [Peptide 13 (SEQ ID NO: 13)],2.04
3,B2,3.19
4,B3,34.7
5,B4,0.792
6,B5,0.541

# Target: T2, human amylin receptor (calcitonin …)
# Experiment: cell-based or functional assay
Binder,EC50 (cAMP production) [nM],Ratio (EC50 hCTR / EC50 hAMYR3)
B1,0.403,5
K([γGlu-γGlu-C18 diacid])CNTATCATQRLANFLVHSSNN[αMeF]GPILPPTNVGSNTY-NH2 (disulfide 2-7) [Peptide 13 (SEQ ID NO: 13)],0.196,10
B2,0.77,4
B3,1.46,24
B4,0.417,2
B5,0.204,3
